Measured values from publication PMC8671467, “A novel Bacillus ligniniphilus catechol 2,3-dioxygenase shows unique substrate preference and metal requirement” (Scientific Reports, 2021).

Columns and labels:
CCc1cccc(O)c1O = assay: purified protein; settings: 0.1 M Tris-HCl pH 7.4, 0.1 mM MnCl2, 32.5 °C, 20 µg/mL enzyme, 0.05-1.0 mM substrate
Cc1cccc(O)c1O = assay: purified protein; settings: 0.1 M Tris-HCl pH 7.4, 0.1 mM MnCl2, 32.5 °C, 40 µg/mL enzyme, 0.2-1.2 mM substrate

BLC23O (Halalkalibacterium ligniniphilum)
Km (CCc1cccc(O)c1O): 193 ± 17 µM
kcat (CCc1cccc(O)c1O): 0.47 ± 0.09 s⁻¹
kcat/Km (CCc1cccc(O)c1O): 2400 M⁻¹ s⁻¹
Km (Cc1cccc(O)c1O): 418 ± 25 µM
kcat (Cc1cccc(O)c1O): 0.2 ± 0.03 s⁻¹
kcat/Km (Cc1cccc(O)c1O): 480 M⁻¹ s⁻¹
